According to patent US5843746:

Assays:
[1] = target: biotinated firefly luciferase bL248 (Luciola lateralis (HEIKE firefly) luciferase fused to a part of E. coli BCCP)
[2] = target: biotinated firefly luciferase bL203 (Luciola lateralis (HEIKE firefly) luciferase fused to an artificial peptide)
[3] = target: chemically modified biotinated firefly luciferase (Photinus pyralis) [luciferase: P08659]

activity maintained upon binding to streptavidin [1]: 102%
remaining activity after mixed with streptavidin [2]: 93%
remaining activity after mixed with streptavidin [3]: 62%
Substance: streptavidin (from UniProt P22629)
